# Test results taken from patent publication US20170253650A1 (FRAUNHOFER GESELLSCHAFT ZUR FOERDERUNG DER ANGEWANDTEN …, published 2017).
# Columns and labels:
# [1] = molecular target: MSP4 on P. falciparum K1 parasites (multi-drug-resistant strain) (Plasmodium falciparum K1); assay: cell-based or functional assay
# [2] = molecular target: MSP4 on P. falciparum 3D7A parasites (mature schizonts / merozoite surface) (Plasmodium falciparum 3D7A); assay: cell-based or functional assay
binder,measurement,setting,value
Gb-2.44 (enterokinase-activated EGb-2.44scFv fusion protein: granzyme B R201K fused to MSP4-specific scFv 2.44) (other) SRHIDDDDKIIGGHEAKPHSRPYMAFLMIWDQKSLKRCGGFLIRDDFVLTAAHCWGSSINVTLGAHNIKEQEPTQQFIPVKRAIPHPAYNPKNFSNDIMLLQLERKAKRTRAVQPLRLPSNKAQVKPGQTCSVAGWGQTAPLGKHSHTLQEVKMTVQEDRKCESDLRHYYDSTIELCVGDPEIKKTSFKGDSGGPLVCNKVAQGIVSYGKNNGMPPRACTKVSSFVHWIKKTMKRYAEHEGDAAQPAMADVQLQESGPGLVKPSQSLSLTCTVTGYSITSDFAWNWIRQFPGNRLEWMGYMGYTGSTSYNPSLRGRISITRDTSKNQFFLQLNSVTTEDTATYYCARGDYYGSRGYFDVWGAGTTVTVSSGGGGSGGGGSSGGGSGGGGSEIVLTQSPALMAASPGEKVTITCSVSSSIRSSNLHWYQQKSDTSPKPWIYGTSNLASGVPVRFSGSGSGTSYSLTISTMEAEDAATYYCQQWSSYPFTFGSGTKLEIKAAANSSLGSGWSHPQFEKTGHHHHHHHHGGQ,"IC50-value, 48-h drug susceptibility assay on multi-drug resistant strain P. falciparum K1 (PfHRP2 ELISA)",[1],247 nM
same,"half maximal inhibitory concentration (IC50-value), 48-h drug susceptibility assay on P. falciparum 3D7A (PfHRP2 ELISA)",[2],176 nM
